Legend:
[1] = target: HA of A/California/04/2009 (CA04; H1N1pdm09) on virus particles (Influenza A virus A/California/04/2009 …, UniProt C3W5S1, strain); test: BLI
[2] = target: Recombinant soluble HA of subtype H1 (A/California/07/2009, H1N1pdm09) (Influenza A virus A/California/07/2009 …, UniProt C3W5X2, strain); test: BLI
[3] = target: Recombinant soluble HA of subtype H7 (A/Netherland/219/2003, H7N7) (Influenza A virus …, UniProt Q6VMK1); test: BLI
[4] = target: Recombinant soluble HA of subtype H3 (A/Perth/16/2009, H3N2) (Influenza A virus A/Perth/16/2009 (H3N2), UniProt C6KNH7, strain); test: BLI
[5] = target: HA of A/duck/Czechoslovakia/56 (H4), expressed in cells from pCAGGS (Influenza A virus …, UniProt P19696, strain); test: immunostaining of cells or tissue
[6] = target: HA of A/mallard/Astrakhan/263/82 (H14), expressed in cells from pCAGGS (Influenza A virus …, UniProt P26136, strain); test: immunostaining of cells or tissue
[7] = target: HA of A/duck/Memphis/546/74 (H11), expressed in cells from pCAGGS (Influenza A virus …, UniProt Q0A426, strain); test: immunostaining of cells or tissue
[8] = target: HA of A/Singapore/1/57 (H2), expressed in cells from pCAGGS (Influenza A virus A/Singapore/1/1957 …, UniProt Q67333, strain); test: immunostaining of cells or tissue
[9] = target: HA of A/gull/Maryland/704/77 (H13), expressed in cells from pCAGGS (Influenza A virus …, UniProt P13103, strain); test: immunostaining of cells or tissue
[10] = target: HA of A/chicken/Germany/N/49 (H10), expressed in cells from pCAGGS (Influenza A virus …, UniProt P12581, strain); test: immunostaining of cells or tissue
[11] = target: HA of A/turkey/Wisconsin/66 (H9), expressed in cells from pCAGGS (Influenza A virus …, UniProt P03457, strain); test: immunostaining of cells or tissue
[12] = target: HA of A/duck/Australia/341/83 (H15), expressed in cells from pCAGGS (Influenza A virus …, UniProt Q82565, strain); test: immunostaining of cells or tissue
[13] = target: HA of A/turkey/Ontario/6118/68 (H8), expressed in cells from pCAGGS (Influenza A virus …, UniProt P03456, strain); test: immunostaining of cells or tissue

B1: S9-1-10/5-1, recombinant monoclonal human IgG (IgG1, kappa) (antibody, V domains shown)
VH: QLHLQESGPGLLKPSATLSLTCTVSGGSMNNYYWSWVRQAPGKGLEWIGYIFHSGSTNYSPPLKSRVTISIDTATNQFFLRLNSVTAADTAVYYCARMSRGVFSSSRFFGLDVWGRGTAVAVSS
VL: EIVLTQSPATLSVSPGERATLSCRASQSVASNLAWYQQKPGQAPRLLISAASTRATDIPARFSGSGSGTEFTLTISSLQSEDFAVYYCQQYNNWLSFTFGPGTKVDMK
[1]
  binding result: binds
[2]
  Kd: 0.0085 nM
  koff: 6.7e-06 s⁻¹
  kon: 790000 M⁻¹ s⁻¹
[3]
  Kd: 0.9 nM
  koff: 0.00037 s⁻¹
  kon: 410000 M⁻¹ s⁻¹
[4]
  Kd: 34 nM
  koff: 0.002 s⁻¹
  kon: 59000 M⁻¹ s⁻¹
[5]
  binding result: binds
[6]
  binding result: binds
[7]
  binding result: binds
[8]
  binding result: binds
[9]
  binding result: binds
[10]
  binding result: binds
[11]
  binding result: binds
[12]
  binding result: binds
[13]
  binding result: binds
